In paper PMC11257983 (2024):

B1: Flag-CNK^2–549 [Drosophila] / GST-HYP [Drosophila] (parent complex)
chain 1: AYINIAEWTPDQVTDWIKGLDESMKGYLYEFSKQEIGGRALLNIRPYELENLGMLRIGHQEIVLEAVENLRNFHYHLKNDNLQFMALHVATAAKNLHRELARNHAESTKIDTRILHDITRTIATLKPLVGSLERTPFRKQEMYREYCGNVLKCGLELATIAHRDRFALQPVPAIRQSAERLENLANFVIQDISDPMVLQPASLNLVTLKKRESELGFNIESSYNGIHRVTDIKYNSPAHNSGKIEDGDEIVQINYQTVVGWQHRTVLEHLREALPDVVLTVKKRPKHTKMFGQIYMQPYRLPSKKRNMAARWAAQMPSPRAAFLTLDTEQLATGGTGSAVPDPSKSLSSEKREVLTKANPVSSASDSDSSCSDIPTPTDPKLAAREIRLYYPKPRALLQRRNTICGCEYLSLKNSDLVVPSWHERKPGIGSPTNCDPGSPSIRDKSISFGYGLEMAARPTTCIGIAGDTSTDKARRMFHEARKLKQLTEDSQREFLVDRYKPGVSKVVRFDAKEDYVMKNEKFICNVENTILETFEPIPFADEGDEDA
chain 2: MGEETINSTQNKTRTKTTRPKAVYLWTVSDVLKWYRRHCGEYTQYEQLFAQHDITGRALLRITDSSLQRMGVTDNRDREAIWREIVKQRLKTDIMEIRDMERLNIY

Variants of: B1
Experiment: GST pull-down, immunoblot quantification; S2 cells; only GST-HYP and Flag-CNK2–549 co-expressed; anti-Flag blot; parent: 1

Point of comparison: chain 2 MGEETINSTQNKTRTKTTRPKAVYLWTVSDVLKWYRRHCGEYTQYEQLFAQHDITGRALLRITDSSLQRMGVTDNRDREAIWREIVKQRDKTDIMEIRDMERLNIY [chain 2 L90D], ratio to parent 0.24. Against it:
- chain 2 MGEETINSTQNKTRTKTTRPKAVYLWTVSDVLKWYRRHCGEYTQYEQLFAQHDITGRALLRITDSSLQRMGVTDNRDREAIWREIVKQRLKTDIMEDRDMERLNIY [chain 2 I97D] — higher, 0.28
- chain 2 MGEETINSTQNKTRTKTTRPKAVYLWTVSDVLKWYRRHCGEYTQYEQLFAQHDITGRALLRITDSSLQRMGVTDNRDREAIWREIVKQRDKTDIMEDRDMERLNIY [chain 2 L90D, chain 2 I97D] — higher, 0.25

Variants of: B1
Experiment: GST pull-down, immunoblot quantification; S2 cells; GST-HYP, Flag-CNK2–549 + RRKM co-expressed; anti-Flag (CNK) blot; parent: 1

Point of comparison: chain 2 MGEETINSTQNKTRTKTTRPKAVYLWTVSDVLKWYRRHCGEYTQYEQLFAQHDITGRALLRITDSSLQRMGVTDNRDREAIWREIVKQRDKTDIMEIRDMERLNIY [chain 2 L90D], ratio to parent 0.24. Against it:
- chain 2 MGEETINSTQNKTRTKTTRPKAVYLWTVSDVLKWYRRHCGEYTQYEQLFAQHDITGRALLRITDSSLQRMGVTDNRDREAIWREIVKQRLKTDIMEDRDMERLNIY [chain 2 I97D] — higher, 0.53
- chain 2 MGEETINSTQNKTRTKTTRPKAVYLWTVSDVLKWYRRHCGEYTQYEQLFAQHDITGRALLRITDSSLQRMGVTDNRDREAIWREIVKQRDKTDIMEDRDMERLNIY [chain 2 L90D, chain 2 I97D] — lower, 0.15

Variants of: B1
Experiment: GST pull-down, immunoblot quantification; S2 cells; GST-HYP, V5-KSR, Myc-MEK co-expressed; anti-Flag (CNK) blot; parent: 1

Point of comparison: chain 1 AYINIAEWTPDQVTDWIKGLDESMKGYLYEFSKQEIGGRALLNIRPYELENLGMLRIGHQEIVLEAVENLRNFHYHLKNDNLQFMALHVATAAKNLHRELARNHAESTEIDTRILHDITRTIATLKPLVGSLERTPFRKQEMYREYCGNVLKCGLELATIAHRDRFALQPVPAIRQSAERLENLANFVIQDISDPMVLQPASLNLVTLKKRESELGFNIESSYNGIHRVTDIKYNSPAHNSGKIEDGDEIVQINYQTVVGWQHRTVLEHLREALPDVVLTVKKRPKHTKMFGQIYMQPYRLPSKKRNMAARWAAQMPSPRAAFLTLDTEQLATGGTGSAVPDPSKSLSSEKREVLTKANPVSSASDSDSSCSDIPTPTDPKLAAREIRLYYPKPRALLQRRNTICGCEYLSLKNSDLVVPSWHERKPGIGSPTNCDPGSPSIRDKSISFGYGLEMAARPTTCIGIAGDTSTDKARRMFHEARKLKQLTEDSQREFLVDRYKPGVSKVVRFDAKEDYVMKNEKFICNVENTILETFEPIPFADEGDEDA [chain 1 K109E], ratio to parent 0.81. Against it:
- chain 1 AYINIAEWTPDQVTDWIKGLDESMKGYLYEFSKQEIGGRALLNIRPYELENLGMLRIGHQEIVLEAVENLRNFHYHLKNDNLQFMALHVATAAKNLHRELARNHAESTKIDTRILHDITRTIATLKPLVGSLERTPFRKQEMYREYCGNVLKCGLELATIAHRDRFALQPVPAIRQSAERLENLANFVIQDISDPMVLQPASLNLVTLKKRESELGFNIESSYNGIHRVTDIKYNSPAHNSGKIEDGDEIVQINYQTVVGWQHETVLEHLREALPDVVLTVKKRPKHTKMFGQIYMQPYRLPSKKRNMAARWAAQMPSPRAAFLTLDTEQLATGGTGSAVPDPSKSLSSEKREVLTKANPVSSASDSDSSCSDIPTPTDPKLAAREIRLYYPKPRALLQRRNTICGCEYLSLKNSDLVVPSWHERKPGIGSPTNCDPGSPSIRDKSISFGYGLEMAARPTTCIGIAGDTSTDKARRMFHEARKLKQLTEDSQREFLVDRYKPGVSKVVRFDAKEDYVMKNEKFICNVENTILETFEPIPFADEGDEDA [chain 1 R264E] — lower, 0.68
- chain 1 AYINIAEWTPDQVTDWIKGLDESMKGYLYEFSKQEIGGRALLNIRPYELENLGMLRIGHQEIVLEAVENLRNFHYHLKNDNLQFMALHVATAAKNLHRELARNHAESTKIDTRILHDITRTIATLKPLVGSLERFPFRKQEMYREYCGNVLKCGLELATIAHRDRFALQPVPAIRQSAERLENLANFVIQDISDPMVLQPASLNLVTLKKRESELGFNIESSYNGIHRVTDIKYNSPAHNSGKIEDGDEIVQINYQTVVGWQHRTVLEHLREALPDVVLTVKKRPKHTKMFGQIYMQPYRLPSKKRNMAARWAAQMPSPRAAFLTLDTEQLATGGTGSAVPDPSKSLSSEKREVLTKANPVSSASDSDSSCSDIPTPTDPKLAAREIRLYYPKPRALLQRRNTICGCEYLSLKNSDLVVPSWHERKPGIGSPTNCDPGSPSIRDKSISFGYGLEMAARPTTCIGIAGDTSTDKARRMFHEARKLKQLTEDSQREFLVDRYKPGVSKVVRFDAKEDYVMKNEKFICNVENTILETFEPIPFADEGDEDA [chain 1 T135F] — higher, 0.84
- chain 1 AYINIAEWTPDQVTDWIKGLDESMKGYLYEFSDQEIGGRALLNIRPYELENLGMLRIGHQEIVLEAVENLRNFHYHLKNDNLQFMALHVATAAKNLHRELARNHAESTKIDTRILHDITRTIATLKPLVGSLERTPFRKQEMYREYCGNVLKCGLELATIAHRDRFALQPVPAIRQSAERLENLANFVIQDISDPMVLQPASLNLVTLKKRESELGFNIESSYNGIHRVTDIKYNSPAHNSGKIEDGDEIVQINYQTVVGWQHRTVLEHLREALPDVVLTVKKRPKHTKMFGQIYMQPYRLPSKKRNMAARWAAQMPSPRAAFLTLDTEQLATGGTGSAVPDPSKSLSSEKREVLTKANPVSSASDSDSSCSDIPTPTDPKLAAREIRLYYPKPRALLQRRNTICGCEYLSLKNSDLVVPSWHERKPGIGSPTNCDPGSPSIRDKSISFGYGLEMAARPTTCIGIAGDTSTDKARRMFHEARKLKQLTEDSQREFLVDRYKPGVSKVVRFDAKEDYVMKNEKFICNVENTILETFEPIPFADEGDEDA [chain 1 K33D] — higher, 0.84
